Article PMC10355216 (2023)
Where no end group is shown, it is not given here.

What was measured:
[1] = target: T1, recombinant CSN^ΔCSNAP complex (UniProt Q13098 1-491; Q9UNS2 1-423; Q92905 1-334; Q99627 2-209); assay: SPR
[2] = target: T1, recombinant CSN^ΔCSNAP complex; assay: SPR; remark: listed apart in the source

koff [1] [s⁻¹] | Kd [2] [nM] | Binder
0.001 | 0.41 | AVHADFFNDFEDLFDDDDIQ-biotin [20AA C-CSNAP peptide, C-terminally biotinylated]
0.00016 | 0.068 | full-length CSNAP, C-terminally biotinylated (natural protein) MKPAVDEMFPEGAGPYVDLDEAGGSTGLLMDLAANEKAVHADFFNDFEDLFDDDDIQ-biotin
0.0027 | 2.5 | EFFNDFEDLFDDDDIQ-biotin [D42E C-CSNAP peptide, C-terminally biotinylated]
0.0014 | 0.4 | DFFNDFEDLFDDDDIQ-biotin [16AA C-CSNAP peptide, C-terminally biotinylated]
